Results as given in article PMC5863767, “Mps1 Phosphorylates Its N-Terminal Extension to Relieve Autoinhibition and Activate the Spindle Assembly Checkpoint” (Current Biology, 2018).

Target: the molecule itself
Assay: cross-linking; BS3 cross-linking of purified GST-Mps1 (10:1 protein:BS3, 2 h on ice; 50 mM HEPES pH 7.5, 250 mM KCl, 0.05% NP-40, 1 mM DTT), NATIVE-PAGE, bands of cross-linked dimers excised, cross-linked peptides identified by mass spectrometry

| Protein | binding result |
| --- | --- |
| GST-Mps1-WT (enzyme, human, UniProt P33981 1-857, looked up, Mps1 kinase, human, wild type, full-length polypeptide; also called active Mps1; source: baculovirus-infected Sf9 cells, purified (glutathione-agarose, eluted with glutathione)) MESEDLSGRELTIDSIMNKVRDIKNKFKNEDLTDELSLNKISADTTDNSGTVNQIMMMANNPEDWLSLLLKLEKNSVPLSDALLNKLIGRYSQAIEALPPDKYGQNESFARIQVRFAELKAIQEPDDARDYFQMARANCKKFAFVHISFAQFELSQGNVKKSKQLLQKAVERGAVPLEMLEIALRNLNLQKKQLLSEEEKKNLSASTVLTAQESFSGSLGHLQNRNNSCDSRGQTTKARFLYGENMPPQDAEIGYRNSLRQTNKTKQSCPFGRVPVNLLNSPDCDVKTDDSVVPCFMKRQTSRSECRDLVVPGSKPSGNDSCELRNLKSVQNSHFKEPLVSDEKSSELIITDSITLKNKTESSLLAKLEETKEYQEPEVPESNQKQWQSKRKSECINQNPAASSNHWQIPELARKVNTEQKHTTFEQPVFSVSKQSPPISTSKWFDPKSICKTPSSNTLDDYMSCFRTPVVKNDFPPACQLSTPYGQPACFQQQQHQILATPLQNLQVLASSSANECISVKGRIYSILKQIGSGGSSKVFQVLNEKKQIYAIKYVNLEEADNQTLDSYRNEIAYLNKLQQHSDKIIRLYDYEITDQYIYMVMECGNIDLNSWLKKKKSIDPWERKSYWKNMLEAVHTIHQHGIVHSDLKPANFLIVDGMLKLIDFGIANQMQPDTTSVVKDSQVGTVNYMPPEAIKDMSSSRENGKSKSKISPKSDVWSLGCILYYMTYGKTPFQQIINQISKLHAIIDPNHEIEFPDIPEKDLQDVLKCCLKRDPKQRISIPELLAHPYVQIQTHPVNQMAKGTTEEMKYVLGQLVGLNSPNSILKAAKTLYEHYSGGESHNSSSSKTFEKKRGKK | binds |
| GST-Mps1-KD (enzyme, human, UniProt P33981 1-857, looked up, Mps1 kinase, human, kinase-dead, full-length polypeptide; also called kinase-dead (D664A); source: baculovirus-infected Sf9 cells, purified (glutathione-agarose, eluted with glutathione)) MESEDLSGRELTIDSIMNKVRDIKNKFKNEDLTDELSLNKISADTTDNSGTVNQIMMMANNPEDWLSLLLKLEKNSVPLSDALLNKLIGRYSQAIEALPPDKYGQNESFARIQVRFAELKAIQEPDDARDYFQMARANCKKFAFVHISFAQFELSQGNVKKSKQLLQKAVERGAVPLEMLEIALRNLNLQKKQLLSEEEKKNLSASTVLTAQESFSGSLGHLQNRNNSCDSRGQTTKARFLYGENMPPQDAEIGYRNSLRQTNKTKQSCPFGRVPVNLLNSPDCDVKTDDSVVPCFMKRQTSRSECRDLVVPGSKPSGNDSCELRNLKSVQNSHFKEPLVSDEKSSELIITDSITLKNKTESSLLAKLEETKEYQEPEVPESNQKQWQSKRKSECINQNPAASSNHWQIPELARKVNTEQKHTTFEQPVFSVSKQSPPISTSKWFDPKSICKTPSSNTLDDYMSCFRTPVVKNDFPPACQLSTPYGQPACFQQQQHQILATPLQNLQVLASSSANECISVKGRIYSILKQIGSGGSSKVFQVLNEKKQIYAIKYVNLEEADNQTLDSYRNEIAYLNKLQQHSDKIIRLYDYEITDQYIYMVMECGNIDLNSWLKKKKSIDPWERKSYWKNMLEAVHTIHQHGIVHSDLKPANFLIVDGMLKLIAFGIANQMQPDTTSVVKDSQVGTVNYMPPEAIKDMSSSRENGKSKSKISPKSDVWSLGCILYYMTYGKTPFQQIINQISKLHAIIDPNHEIEFPDIPEKDLQDVLKCCLKRDPKQRISIPELLAHPYVQIQTHPVNQMAKGTTEEMKYVLGQLVGLNSPNSILKAAKTLYEHYSGGESHNSSSSKTFEKKRGKK | binds |
